Results: the supplement of paper PMC10724198
± gives the standard deviation of the averaged measurements.

Tested on: Saccharomyces cerevisiae
Assay: protein stability index of tFT-peptide fusion (C-terminal peptide) (PSI (0-1 scale)); higher = more stable (slower turnover)
Conditions: temperature: 30 C
Experimental: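 MPS profiling in S. cerevisiae of the yeast C-terminome library: the last 12 aa of each annotated ORF are fused to the C-terminus of a sfGFP-mCherry timer, after a GGGS linker. Cells are FACS-sorted into 8 mCherry/sfGFP bins and deep-sequenced. PSI runs from 0 (unstable) to 1 (stable); wild type and das1Δ backgrounds, two technical replicates each.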

[1] = genetic background: das1 deletion

Row | Sequence | protein stability index [1] | protein stability index (genetic background: wild type)
1 | KIHTAAIAAFKQ [ATP12 C-terminal 12 aa] | 0.7013 ± 0.0055 | 0.612 ± 0.033
2 | NKNLHGINTNEF [TRE1 C-terminal 12 aa] | 0.7067 ± 0.0039 | 0.6665 ± 0.0019
3 | MDSGLDLEFCKP [YKR075W-A C-terminal 12 aa] | 0.687 ± 0.019 | 0.692 ± 0.045
4 | LLEVSDQAFEPE [RGD1 C-terminal 12 aa] | 0.6967 ± 0.0019 | 0.683 ± 0.053
5 | GAVVAGAAALLL [TIP1 C-terminal 12 aa] | 0.729 ± 0.024 | 0.709 ± 0.032
6 | LAFFKRDFFKGL [NDI1 C-terminal 12 aa] | 0.699 ± 0.02 | 0.569 ± 0.039
7 | YTSWQTIKMWSQ [AVT3 C-terminal 12 aa] | 0.658 ± 0.007 | 0.654 ± 0.029
8 | DDDDDDDDDEAD [RAD6 C-terminal 12 aa] | 0.686 ± 0.015 | 0.667 ± 0.0086
9 | TAIAHRAYIQLK [RSM7 C-terminal 12 aa] | 0.709 ± 0.035 | 0.685 ± 0.033
10 | SQMRPPSQGDKI [DAL82 C-terminal 12 aa] | 0.714 ± 0.024 | 0.675 ± 0.023
11 | IMICFLERRKGN [FYV1 C-terminal 12 aa] | 0.652 ± 0.018 | 0.638 ± 0.075
12 | TLGEVINELNNK [VAM6 C-terminal 12 aa] | 0.7226 ± 0.0022 | 0.676 ± 0.011
13 | GVLLILASALFT [ZRT3 C-terminal 12 aa] | 0.3294 ± 0.0016 | 0.341 ± 0.0088
14 | DSELGCCCCFFN [EDS1 C-terminal 12 aa] | 0.701 ± 0.03 | 0.696 ± 0.018
15 | MAMPPGQSQPQY [DHH1 C-terminal 12 aa] | 0.727 ± 0.0093 | 0.713 ± 0.034
16 | MVVIVLFLSYRN [YGL177W C-terminal 12 aa] | 0.276 ± 0.034 | 0.275 ± 0.031
17 | ILKPYYIWNNRN [ARR3 C-terminal 12 aa] | 0.7161 ± 0.0069 | 0.276 ± 0.0074
18 | EKANDIGFNKFR [RPS29A C-terminal 12 aa] | 0.678 ± 0.014 | 0.7106 ± 0.006
19 | IVIQVNNPLTRA [DOG1 C-terminal 12 aa] | 0.66 ± 0.011 | 0.7098 ± 0.0059
20 | LTFDVKLVSMKN [FPR3 C-terminal 12 aa] | 0.679 ± 0.025 | 0.667 ± 0.046
21 | VQWSRPRRGDVL [LAM6 C-terminal 12 aa] | 0.7079 ± 0.0014 | 0.703 ± 0.051

Row | Sequence | protein stability index [1] | protein stability index (genetic background: wild type)
22 | DALHKMDKNVLE [YOL029C C-terminal 12 aa] | 0.696 ± 0.028 | 0.728 ± 0.076
23 | IKNTGDLLKLYK [ALK1 C-terminal 12 aa] | 0.685 ± 0.021 | 0.647 ± 0.0085
24 | PIALTMFQRWAS [UPA1 C-terminal 12 aa] | 0.688 ± 0.01 | 0.498 ± 0.038
25 | QVRDILDKLNII [PRB1 C-terminal 12 aa] | 0.703 ± 0.015 | 0.6877 ± 0.0033
26 | ASRHSSTKKTST [CAB1 C-terminal 12 aa] | 0.6986 ± 0.0058 | 0.692 ± 0.054
27 | VFEISNKELFLT [YIL029W-A C-terminal 12 aa] | 0.6922 ± 0.0023 | 0.452 ± 0.016
28 | DGIRQVDDFQAQ [PRE1 C-terminal 12 aa] | 0.701 ± 0.012 | 0.658 ± 0.0071
29 | KVKTKKEEGKER [PXA2 C-terminal 12 aa] | 0.698 ± 0.022 | 0.654 ± 0.0067
30 | DDEAGALIPENC [SOL4 C-terminal 12 aa] | 0.705 ± 0.03 | 0.688 ± 0.0086
31 | LKEASRYILEVY [MET10 C-terminal 12 aa] | 0.28 ± 0.013 | 0.31 ± 0.0096
32 | LCLLFFTFSLFF [GAS4 C-terminal 12 aa] | 0.3594 ± 0.0027 | 0.371 ± 0.016
33 | EIMLGKNLLITS [YNL109W C-terminal 12 aa] | 0.619 ± 0.0087 | 0.503 ± 0.028
34 | VIWQERETTANK [EMI1 C-terminal 12 aa] | 0.724 ± 0.033 | 0.676 ± 0.038
35 | NGKKNEAYEGFV [EXP1 C-terminal 12 aa] | 0.699 ± 0.015 | 0.722 ± 0.014
36 | HTPSLKTWSTIK [FKS1 C-terminal 12 aa] | 0.7108 ± 0.0063 | 0.711 ± 0.019
37 | DASALIEIQEKC [SST2 C-terminal 12 aa] | 0.669 ± 0.021 | 0.695 ± 0.059
38 | LNKIKNIRKKKQ [SNQ2 C-terminal 12 aa] | 0.705 ± 0.031 | 0.393 ± 0.021
39 | KALKWEEQELNM [CCM1 C-terminal 12 aa] | 0.711 ± 0.015 | 0.729 ± 0.057
40 | IVIQVNNPLTRD [DOG2 C-terminal 12 aa] | 0.692 ± 0.099 | 0.643 ± 0.0052
41 | ILVLRHFDEIFI [YOR032W-A C-terminal 12 aa] | 0.63 ± 0.0065 | 0.655 ± 0.044
42 | SGLIIAEAGIGG [YAL031W-A C-terminal 12 aa] | 0.7001 ± 0.005 | 0.7129 ± 0.0038

Row | Sequence | protein stability index [1] | protein stability index (genetic background: wild type)
43 | THNEGSSVKKMH [SLC1 C-terminal 12 aa] | 0.694 ± 0.045 | 0.674 ± 0.037
44 | DAMEFIAQSHKS [OCT1 C-terminal 12 aa] | 0.694 ± 0.011 | 0.719 ± 0.021
45 | IEHYKSEQEKSL [MUP1 C-terminal 12 aa] | 0.6971 ± 0.0015 | 0.67 ± 0.035
46 | TLSYIRVHKLVK [TYC1 C-terminal 12 aa] | 0.647 ± 0.019 | 0.493 ± 0.015
47 | DKYLCMLKTCVF [NUT1 C-terminal 12 aa] | 0.515 ± 0.019 | 0.517 ± 0.021
48 | VSYFSIFSLFFF [YKL096C-B C-terminal 12 aa] | 0.667 ± 0.047 | 0.603 ± 0.016
49 | YDEIVPLMSDEE [ECM21 C-terminal 12 aa] | 0.7035 ± 0.0035 | 0.716 ± 0.057
50 | IVQLGMSHGDIS [SMF1 C-terminal 12 aa] | 0.711 ± 0.028 | 0.699 ± 0.023
51 | ENAGKIFFNETE [YHR213W-A C-terminal 12 aa] | 0.733 ± 0.029 | 0.684 ± 0.033
52 | EGKWEPAGEVHQ [SEC13 C-terminal 12 aa] | 0.706 ± 0.012 | 0.7167 ± 0.0048
53 | EDSSDSSDSDSD [BDF2 C-terminal 12 aa] | 0.669 ± 0.015 | 0.675 ± 0.068
54 | IHYFKSNLSSPS [RAM1 C-terminal 12 aa] | 0.688 ± 0.022 | 0.724 ± 0.028
55 | NENIHSLIGNSY [NNF2 C-terminal 12 aa] | 0.702 ± 0.023 | 0.693 ± 0.0087
56 | TNNRHKYQNGRK [YLL032C C-terminal 12 aa] | 0.7 ± 0.053 | 0.664 ± 0.0094
57 | RPPRTRIPRLRR [YKR047W C-terminal 12 aa] | 0.7572 ± 0.0045 | 0.708 ± 0.036
58 | QGILMAKQYHIK [YSA1 C-terminal 12 aa] | 0.714 ± 0.018 | 0.702 ± 0.02
59 | YAEGSLVKTEKL [FAA2 C-terminal 12 aa] | 0.70242 ± 0.0001 | 0.698 ± 0.016
60 | IKLADAIYKGLE [FOL1 C-terminal 12 aa] | 0.702 ± 0.013 | 0.6648 ± 0.0011
61 | KGIKGFFHRIFD [YGR126W C-terminal 12 aa] | 0.6963 ± 0.002 | 0.68 ± 0.018
62 | DKEWTNYATHIG [AYT1 C-terminal 12 aa] | 0.696 ± 0.019 | 0.701 ± 0.013
63 | ELTLFLSYKSYS [YGR045C C-terminal 12 aa] | 0.683 ± 0.02 | 0.64 ± 0.017

Row | Sequence | protein stability index [1] | protein stability index (genetic background: wild type)
64 | GKNGARLSEIGW [SNZ2 C-terminal 12 aa] | 0.7224 ± 0.0061 | 0.691 ± 0.025
65 | GLDPEELEDLVT [PDS1 C-terminal 12 aa] | 0.688 ± 0.011 | 0.7032 ± 0.0028
66 | RSIIKLPVTKGL [YBL008W-A C-terminal 12 aa] | 0.6946 ± 0.0058 | 0.6596 ± 0.0024
67 | MESNDNLERVLS [APS1 C-terminal 12 aa] | 0.673 ± 0.038 | 0.695 ± 0.032
68 | LCEFLKGVQSAL [DAK1 C-terminal 12 aa] | 0.7137 ± 0.005 | 0.683 ± 0.011
69 | LGVVSKMLVTCK [CIA2 C-terminal 12 aa] | 0.303 ± 0.026 | 0.326 ± 0.0041
70 | NPHPRIQMKMSV [CDC21 C-terminal 12 aa] | 0.663 ± 0.035 | 0.624 ± 0.048
71 | EVISSYQIDMIV [HIM1 C-terminal 12 aa] | 0.657 ± 0.013 | 0.62 ± 0.0077
72 | VVFLSVLKRNDL [YOL099C C-terminal 12 aa] | 0.685 ± 0.031 | 0.772 ± 0.11
73 | LSIMKTLVPWTL [YML054C-A C-terminal 12 aa] | 0.712 ± 0.024 | 0.6528 ± 0.0022
74 | PMGDIPVHLFKR [ACF4 C-terminal 12 aa] | 0.709 ± 0.013 | 0.729 ± 0.014
75 | SDILKYILLGSN [SNF4 C-terminal 12 aa] | 0.683 ± 0.0085 | 0.6783 ± 0.0061
76 | LNAVESLKEAST [TIM11 C-terminal 12 aa] | 0.69 ± 0.0078 | 0.686 ± 0.029
77 | LNSYEEEANGST [SHG1 C-terminal 12 aa] | 0.7062 ± 0.0036 | 0.734 ± 0.028
78 | MQTKIEHYMESI [MRX12 C-terminal 12 aa] | 0.712 ± 0.028 | 0.68 ± 0.053
79 | NALKSKQKNKDD [AYR1 C-terminal 12 aa] | 0.684 ± 0.0082 | 0.698 ± 0.044
80 | DASSTKNTDHIV [MEP2 C-terminal 12 aa] | 0.678 ± 0.014 | 0.679 ± 0.068
81 | TLFCLLFRFIIF [YIP5 C-terminal 12 aa] | 0.265 ± 0.0053 | 0.2739 ± 0.001
82 | FLGIELHAFFVS [YOL035C C-terminal 12 aa] | 0.6355 ± 0.0029 | 0.635 ± 0.058
